Assay results as given in paper PMC11318927.

Assays:
[1] = biological target: YY1 cellular transcription factor, endogenous in LCLs (UniProt P25490); assay: co-immunoprecipitation (YY1 IP, EBNA-LP blot, band signal quantified); details: 50% IP lanes; trans-complemented LPKO LCLs; parent: 1
[2] = biological target: YY1 cellular transcription factor, endogenous in LCLs (UniProt P25490); assay: co-immunoprecipitation (FLAG-EBNA-LP IP, YY1 blot, band signal quantified); details: 50% IP lanes; LPKO LCLs (Donor 4) trans-complemented; parent: 1.0

Chain of UniProt P25490 (P25490 whole entry): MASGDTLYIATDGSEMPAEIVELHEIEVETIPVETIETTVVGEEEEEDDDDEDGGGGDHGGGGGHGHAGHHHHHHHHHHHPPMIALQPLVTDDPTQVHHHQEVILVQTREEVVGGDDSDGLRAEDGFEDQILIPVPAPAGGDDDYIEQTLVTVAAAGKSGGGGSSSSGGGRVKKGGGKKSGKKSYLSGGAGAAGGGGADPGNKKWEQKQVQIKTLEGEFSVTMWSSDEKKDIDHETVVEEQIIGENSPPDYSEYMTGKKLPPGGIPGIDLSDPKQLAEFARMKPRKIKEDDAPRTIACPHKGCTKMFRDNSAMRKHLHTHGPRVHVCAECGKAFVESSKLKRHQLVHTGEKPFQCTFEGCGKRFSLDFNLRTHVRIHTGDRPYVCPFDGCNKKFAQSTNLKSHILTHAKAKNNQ

## FLAG-EBNA-LP wild type (B95-8) with four W domains, from the trans-complementation vector W:L25A; W:L28A; W:L29A (in each of the four W domains); Y:L13A; Y:L17A; Y:L18A
[1]
  response: 0
[2]
  response: 0.01
